Drawing on publication PMC10397247, this text covers interaction score for 3 molecules.

Common to all, as to test: two-hybrid library CCmax;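 note: natural log of median RNA to DNA barcode read ratio; higher means stronger binding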
In one test the target is T1, 4H717-AA.
T1 chain: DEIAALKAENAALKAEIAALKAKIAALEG
The note with it: mean of both orientations.

A further test deals with T2, 4H605-AA.
T2 chain: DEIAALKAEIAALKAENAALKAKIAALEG
As to conditions: mean of both orientations.

A further test deals with T3, 4H3606-AA.
T3 chain: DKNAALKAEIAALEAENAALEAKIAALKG
The note with it: mean of both orientations.

In another test the target is T4, 4H335-AA.
T4 chain: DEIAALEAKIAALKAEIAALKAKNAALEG
The note with it: mean of both orientations.

For another test, the target named is T5, 4H906-AA.
T5 chain: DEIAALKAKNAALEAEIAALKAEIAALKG
The note with it: mean of both orientations.

For a further test, the target named is T6, 4H3655-AA.
T6 chain: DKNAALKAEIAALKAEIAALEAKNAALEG
The note with it: mean of both orientations.

The next test has as its target T7, 4H342-AA.
T7 chain: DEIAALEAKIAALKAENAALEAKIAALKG
The note with it: mean of both orientations.

The next test addresses T8, 4H3343-AA.
T8 chain: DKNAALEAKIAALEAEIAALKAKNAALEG
The note with it: mean of both orientations.

The target in another test is T9, 4H993-AA.
T9 chain: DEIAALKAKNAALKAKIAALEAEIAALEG
As to conditions: mean of both orientations.

The target of a further test is T10, 4H3627-AA.
T10 chain: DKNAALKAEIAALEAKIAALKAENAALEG
As to conditions: mean of both orientations.

Another test concerns the target T11, 4H2944-AA.
T11 chain: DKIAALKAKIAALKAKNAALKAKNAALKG
As to conditions: mean of both orientations.

In another test the target is T12, 4H794-AA.
T12 chain: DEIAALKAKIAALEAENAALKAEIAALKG
The note with it: mean of both orientations.

For another test, the target named is T13, 4H3427-AA.
T13 chain: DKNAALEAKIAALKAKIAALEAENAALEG
The note with it: mean of both orientations.

The target of another test is T14, 4H780-AA.
T14 chain: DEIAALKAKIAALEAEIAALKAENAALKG
The note with it: mean of both orientations.

A further test addresses T15, 4H2642-AA.
T15 chain: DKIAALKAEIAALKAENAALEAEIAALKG

The next test deals with T16, 4H3921-AA.
T16 chain: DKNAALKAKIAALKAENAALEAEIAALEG
The note with it: mean of both orientations.

Another test addresses T17, 4H2837-AA.
T17 chain: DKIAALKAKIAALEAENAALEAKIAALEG
As to conditions: mean of both orientations.

The target of the next test is T18, 4H454-AA.
T18 chain: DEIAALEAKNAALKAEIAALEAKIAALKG
As to conditions: mean of both orientations.

For a further test, the target named is T19, 4H3112-AA.
T19 chain: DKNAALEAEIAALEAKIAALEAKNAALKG
The note with it: mean of both orientations.

The target of the next test is T20, 4H2729-AA.
T20 chain: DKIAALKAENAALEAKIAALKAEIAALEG
The note with it: mean of both orientations.

A further test addresses T21, 4H2754-AA.
T21 chain: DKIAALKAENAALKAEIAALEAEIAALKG
As to conditions: mean of both orientations.

Another test addresses T22, 4H317-AA.
T22 chain: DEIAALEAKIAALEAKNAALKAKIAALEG
The note with it: mean of both orientations.

The target of a further test is T23, 4H881-AA.
T23 chain: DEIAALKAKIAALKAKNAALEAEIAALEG
As to conditions: mean of both orientations.

The next test has as its target T24, 4H3844-AA.
T24 chain: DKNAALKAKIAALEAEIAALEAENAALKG
The note with it: mean of both orientations.

Another test deals with T25, 4H48-AA.
T25 chain: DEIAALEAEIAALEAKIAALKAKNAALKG
The note with it: mean of both orientations.

In the next test the target is T26, 4H678-AA.
T26 chain: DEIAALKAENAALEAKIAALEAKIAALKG
As to conditions: mean of both orientations.

For a further test, the target named is T27, 4H2883-AA.
T27 chain: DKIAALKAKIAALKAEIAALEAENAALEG
The note with it: mean of both orientations.

In a further test the target is T28, 4H566-AA.
T28 chain: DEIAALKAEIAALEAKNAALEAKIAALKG
The note with it: mean of both orientations.

A further test has as its target T29, 4H2949-AA.
T29 chain: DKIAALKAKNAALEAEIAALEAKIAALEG
The note with it: mean of both orientations.

Another test concerns the target T30, 4H429-AA.
T30 chain: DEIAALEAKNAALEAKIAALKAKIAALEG
The note with it: mean of both orientations.

The next test concerns the target T31, APC8401-AA.
T31 chain: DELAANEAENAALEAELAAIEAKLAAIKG
The note with it: mean of both orientations.

The next test has as its target T32, APC9141-AA.
T32 chain: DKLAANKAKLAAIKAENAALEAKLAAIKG
The note with it: mean of both orientations.

The target in a further test is T33, APC9182-AA.
T33 chain: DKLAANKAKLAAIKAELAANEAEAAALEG
The note with it: mean of both orientations.

Another test has as its target T34, APC9806-AA.
T34 chain: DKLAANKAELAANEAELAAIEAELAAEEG
The note with it: mean of both orientations.

For the next test, the target named is T35, APC8516-AA.
T35 chain: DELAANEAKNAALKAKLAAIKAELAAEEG
As to conditions: mean of both orientations.

The target of a further test is T36, APC6088-AA.
T36 chain: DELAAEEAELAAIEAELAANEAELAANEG

Another test deals with T37, APC7524-AA.
T37 chain: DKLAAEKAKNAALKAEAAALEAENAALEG
The note with it: mean of both orientations.

The target in the next test is T38, APC9291-AA.
T38 chain: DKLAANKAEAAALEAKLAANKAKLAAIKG
As to conditions: mean of both orientations.

For a further test, the target named is T39, 4H3438-AA.
T39 chain: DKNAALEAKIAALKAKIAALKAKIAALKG

In a further test the target is T40, 4H_BCR.
T40 chain: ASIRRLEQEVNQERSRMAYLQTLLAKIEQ
The note with it: mean of both orientations.

The target in a further test is T41, 4H347-AA.
T41 chain: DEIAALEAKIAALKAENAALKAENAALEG
As to conditions: mean of both orientations.

The target in a further test is T42, 4H406-AA.
T42 chain: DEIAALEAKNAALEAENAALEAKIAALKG
The note with it: mean of both orientations.

In a further test the target is T43, 4H56-AA.
T43 chain: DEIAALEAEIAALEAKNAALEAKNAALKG
As to conditions: mean of both orientations.

The target in a further test is T44, 4H452-AA.
T44 chain: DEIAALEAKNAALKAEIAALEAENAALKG
The note with it: mean of both orientations.

The next test deals with GCN2_T. As to conditions: mean of both orientations.
Another test has as its target 4H_GCN4. As to conditions: mean of both orientations.
Another test has as its target T45, 4H_APH.
T45 chain: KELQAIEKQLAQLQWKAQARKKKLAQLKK
The note with it: mean of both orientations.

4H_GCN4, sequence (chain, as listed by the source): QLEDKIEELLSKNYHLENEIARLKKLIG

B1: 4H2642-AA (peptide)
chain: DKIAALKAEIAALKAENAALEAEIAALKG
Regarding B1, the interaction score with 4H717-AA was -1.13; in the test with 4H605-AA, 1.36; with 4H3606-AA it was -0.298; with 4H335-AA, -1.02; with 4H906-AA it was -1.72; with 4H3655-AA, -1.24. The interaction score with 4H342-AA is 1.85; with 4H3343-AA, -1.7; with 4H993-AA, 1.73; with 4H3627-AA it was -1.58; in the test with 4H2944-AA it was 0.299; with 4H794-AA, 0.96. The interaction score with 4H3427-AA was -1.25; in the test with 4H780-AA it was -1.24; in the test with 4H2642-AA, 2.07; with 4H3921-AA, -1.11; with 4H2837-AA, -1; with 4H454-AA, 0.982. In addition, the interaction score with 4H3112-AA was -1.11; with 4H2729-AA it was -0.868; with 4H2754-AA, -1.08; with 4H317-AA, 1.06; with 4H881-AA, 0.64; with 4H3844-AA, -1.28. In addition, the interaction score was -0.661 in the test with 4H48-AA; -1.06 with 4H678-AA; -0.642 with 4H2883-AA; 1.3 with 4H566-AA; -0.263 in the test with 4H2949-AA; -0.542 with 4H429-AA.

B2: APC6088-AA (peptide)
chain: DELAAEEAELAAIEAELAANEAELAANEG
For the molecule B2, the interaction score with APC8401-AA is -1.56; with APC9141-AA it was -1.67; in the test with APC9182-AA, -1.84; in the test with APC9806-AA, -1.36; in the test with APC8516-AA it was -2.19; in the test with APC6088-AA, -1.3. The interaction score is -1.52 in the test with APC7524-AA and -1.58 in the test with APC9291-AA.

B3: 4H3438-AA (peptide)
chain: DKNAALEAKIAALKAKIAALKAKIAALKG
As for B3, the interaction score in the test with 4H3438-AA was 0.922; in the test with 4H_BCR it was -1.47; with 4H347-AA, -0.916; with 4H406-AA, -1.51; with 4H56-AA it was 0.462; with 4H452-AA, -0.716. Further, the interaction score with GCN2_T was -1; in the test with 4H_GCN4, -1.68; in the test with 4H_APH it was -1.5.
